One data set concerns the target T1, Ndi1 (Saccharomyces cerevisiae, UniProt P32340).
T1 construct: The mature Ndi1, which lacks a mitochondrial targeting; (His)10; made in house; host or cells: E. coli BL21(DE3)pLysS, plasmid pET16b(NDI1-m)
T1 sequence (P32340 27-513): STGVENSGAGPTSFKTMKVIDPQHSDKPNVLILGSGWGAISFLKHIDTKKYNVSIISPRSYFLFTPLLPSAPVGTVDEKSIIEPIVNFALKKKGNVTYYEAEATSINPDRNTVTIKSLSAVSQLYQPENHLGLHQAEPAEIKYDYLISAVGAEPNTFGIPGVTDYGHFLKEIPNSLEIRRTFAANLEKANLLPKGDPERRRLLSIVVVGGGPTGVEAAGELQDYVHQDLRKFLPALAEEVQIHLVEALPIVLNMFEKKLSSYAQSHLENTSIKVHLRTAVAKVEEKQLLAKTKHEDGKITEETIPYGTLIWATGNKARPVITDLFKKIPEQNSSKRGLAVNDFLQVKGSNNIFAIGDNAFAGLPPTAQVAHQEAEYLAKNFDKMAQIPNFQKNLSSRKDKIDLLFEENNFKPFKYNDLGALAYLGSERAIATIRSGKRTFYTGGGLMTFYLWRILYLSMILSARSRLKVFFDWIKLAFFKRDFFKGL
The data set can be described thus: Inhibition of NADH-ubiquinone-1 oxidoreductase activity of the purified Ndi1. It is filed as biochemical. Conditions: for α (α > 0): α of mixed model inhibition fit (αKi = dissociation constant of ternary enzyme-substrate-inhibitor complex). As to the method: NADH-ubiquinone oxidoreductase activity was measured as described previously. In brief, the reaction was started by adding 100 µM NADH to the enzyme mixture containing 10 ng/mL Ndi1, 50 mM sodium phosphate (pH 6.0) and 1 mM EDTA, which was pre-incubated with various concentrations of ubiquinone-1 for 1 min. […] The concentrations of inhibitors required to obtain the half-maximal inhibition (IC50) were estimated by non-linear regression dose-response curves. The inhibition mode of each inhibitor for ubiquinone-1 was determined by the intersection point in double-reciprocal plots (Fig. 2B–E). To objectively evaluate the inhibition mode, the data of the inhibition kinetics were fitted to the Eq.
This equation provides two dissociation constants, one for the binary enzyme-inhibitor complex (Ki), the other for the ternary enzyme-substrate-inhibitor complex (αKi).

Data set [1] concerns wild-type and mutant Ndi1. The data set can be described thus: Kinetic parameters of the oxidoreductase activity of wild-type and mutant Ndi1 for ubiquinone-1. It is filed as biochemical, Saccharomyces cerevisiae. To be noted: for Km: apparent Km for ubiquinone-1 (2.4–60 µM); for Km / Vmax: NADH fixed at 100 µM; for Vmax: ubiquinone-1 as substrate (2.4–60 µM). As to the method:
This unique structure appears to be related to the competitive nature of the inhibition of Ndi1 oxidoreductase activity by stigmatellin. It is therefore hypothesized that L444, I459, R460, and S461, which interact with stigmatellin at the STG-1a site, are also involved in the binding of the substrate ubiquinone (Fig. 5). This hypothesis was evaluated by examining the effects of mutations of the proximal L444 and I459 on the kinetics of the enzymatic reaction of Ndi1. The effect of the mutation of S484, which specifically interacts with stigmatellin at the STG-1b site, was examined as a control. Furthermore, the effects of mutations of W63, P92, A393, Q394, H397, L447, Y482, M485, and L487, which interact with the aromatic head group of stigmatellin at the STG-1a and STG-1b sites, were also examined. Moreover, to investigate the functional role of the STG-2 site in ubiquinone binding, a mutation was also introduced to R479.
NADH-ubiquinone oxidoreductase activity was measured as described previously. In brief, the reaction was started by adding 100 µM NADH to the enzyme mixture containing 10 ng/mL Ndi1, 50 mM sodium phosphate (pH 6.0) and 1 mM EDTA, which was pre-incubated with various concentrations of ubiquinone-1 for 1 min. The decrease in 340 nm absorbance was measured as an indication of the oxidation of NADH (ε = 6.22 mM^−1 cm^−1) with a Shimadzu UV2000 spectrophotometer (Kyoto, Japan). The enzymatic activity obtained with 100 µM NADH and 60 µM ubiquinone-1 in the absence of any inhibitors (100% activity) catalyzed the oxidation of 1,890 μmol NADH/min/mg Ndi1. The concentrations of inhibitors required to obtain the half-maximal inhibition (IC50) were estimated by non-linear regression dose-response curves. The inhibition mode of each inhibitor for ubiquinone-1 was determined by the intersection point in double-reciprocal plots (Fig. 2B–E). To objectively evaluate the inhibition mode, the data of the inhibition kinetics were fitted to the Eq. (1) of mixed model inhibition in the Prism6 software program (GraphPad Software, Inc., La Jolla, CA).1 V=Vmax[S]/[S](1+[I]/αKi)+Km(1+[I]/Ki) […]
To determine the kinetic parameters of wild-type and mutant enzymes for ubiquinone-1, the NADH oxidation rates were measured in a fixed concentration of NADH (100 µM) and different concentrations of ubiquinone-1 (2.4–60 µM). Apparent Km and Vmax values were obtained by fitting a data set of initial velocity versus substrate concentration to the Michaelis-Menten model equation in the Prism6 software program.
Site-directed mutagenesis. The amino acid replacements of Ndi1 were basically performed with PrimeSTAR mutagenesis basal kit (Takara, Japan) using pET16b(NDI1-m) (2) and a synthetic oligonucleotide primer set (Table S2). The mutagenesis of H397 was performed with a QuikChange II XL site-directed mutagenesis kit (Stratagene, CA). Each mutation was confirmed through DNA sequencing (DNA sequencing service, Eurofins). The purification procedure of wild-type and mutant enzymes, used for the determination of the kinetic parameters (Table 2), was basically the same as the above procedure, without the replacement of the detergent from Triton X -100 with DDM. After washing the enzyme with buffer A containing 0.1% Triton X-100 and 15 mM histidine, 0.02% Triton X-100 was added to all buffer as a substitute for DDM. With the exception of 5 mutants containing L444D, I459A, […]
yield of the wild-type enzyme. […]

Positions count from the first letter of the chain named. In names and notes the source's numbering stands.

As to `C/C=C(C)/C=C/C=C/[C@H](OC)[C@@H](C)[C@@H](OC)[C@@H](C)CCc1oc2c(O)c(OC)cc(OC)c2c(=O)c1C` [Stigmatellin, stigmatellin], the IC50 (usually the point on the concentration scale where inhibition reaches its midpoint) on Ndi1 (NADH-ubiquinone-1 oxidoreductase activity, purified recombinant Ndi1, 100 µM NADH, pH 6.0, mean ± S.E.M of three independent experiments) came to 107 ± 21 nM. Further, the Inhibition mode entry at Ndi1 (inhibition mode for ubiquinone-1, from intersection point in Lineweaver-Burk plots, 100 µM NADH) is “competitive”. For the same molecule, at Ndi1 (non-linear regression of mixed type inhibition (GraphPad Prism 6), versus ubiquinone-1, mean ± S.D.), the Ki (usually the equilibrium dissociation constant of an inhibitor or competing ligand from its target) amounted to 93.9 ± 30.4 nM. In addition, the “α (α > 0)” value is ~6.33×10^20 at Ndi1 (mean ± S.D.) and “close to infinity” at Ndi1 (mean ± S.D., listed as stigmatellin).

B1: M485E: recombinant Ndi1 mutant M485E (protein, UniProt P32340 27-513, looked up, variant M485E)
Rotenone-insensitive …: T1 sequence (P32340 27-513) with M459E
Consider B1, for which, in data set [1], the Km (in general, the concentration of substrate that gives half-maximal velocity) is 63.5 ± 7.8 µM and the Vmax – broadly, the rate approached at saturating substrate – was 1190 ± 96 µmol/min/mg. In addition, in data set [1] (relative to wild-type Ndi1), the “Vmax, % of the wild-type activity” value amounted to 112% and the “increase of Km value for ubiquinone-1 in comparison to wild-type enzyme” value came out at 2.8 fold.

B2: R479K: recombinant Ndi1 mutant R479K (protein, UniProt P32340 27-513, looked up, variant R479K)
Rotenone-insensitive …: T1 sequence (P32340 27-513) with R453K
As for B2, in data set [1], the Km came out at 9.37 ± 0.48 µM and the Vmax was determined as 305 ± 5.8 µmol/min/mg. The “Vmax, % of the wild-type activity” value in data set [1] (relative to wild-type Ndi1) came out at 29%.

B3: P92A: recombinant Ndi1 mutant P92A (protein, UniProt P32340 27-513, looked up, variant P92A)
Rotenone-insensitive …: T1 sequence (P32340 27-513) with P66A
With B3, in data set [1], the Km came out at 25.6 ± 2.2 µM and the Vmax amounted to 11.3 ± 0.4 µmol/min/mg. Besides, in data set [1] (relative to wild-type Ndi1), the “Vmax, % of the wild-type activity” value was 1%.

B4: L444N: recombinant Ndi1 mutant L444N (protein, UniProt P32340 27-513, looked up, variant L444N)
Rotenone-insensitive …: T1 sequence (P32340 27-513) with L418N
Turning to B4, in data set [1], the Km worked out at 23.9 ± 2 µM and the Vmax turned out to be 1333 ± 14 µmol/min/mg.

B5: L447N: recombinant Ndi1 mutant L447N (protein, UniProt P32340 27-513, looked up, variant L447N)
Rotenone-insensitive …: T1 sequence (P32340 27-513) with L421N
On to B5, for which, in data set [1], the Km worked out at 17.9 ± 1.8 µM and the Vmax came out at 140 ± 7.1 µmol/min/mg. For the same molecule, the “Vmax, % of the wild-type activity” value in data set [1] (relative to wild-type Ndi1) was found to be 13%.

B6: Wild type: wild-type recombinant Saccharomyces cerevisiae Ndi1 (NADH dehydrogenase) (protein, UniProt P32340 27-513, looked up)
Rotenone-insensitive …: T1 sequence (P32340 27-513)
For B6, in data set [1], the Km came to 22.7 ± 1 µM and the Vmax was determined as 1060 ± 6.1 µmol/min/mg.

B7: Q394A: recombinant Ndi1 mutant Q394A (protein, UniProt P32340 27-513, looked up, variant Q394A)
Rotenone-insensitive …: T1 sequence (P32340 27-513) with Q368A
As for B7, in data set [1], the Km amounted to 24.5 ± 1.7 µM and the Vmax stood at 391 ± 3.3 µmol/min/mg. For the same molecule, in data set [1] (relative to wild-type Ndi1), the “Vmax, % of the wild-type activity” value came out at 37%.

B8: R479I: recombinant Ndi1 mutant R479I (protein, UniProt P32340 27-513, looked up, variant R479I)
Rotenone-insensitive …: T1 sequence (P32340 27-513) with R453I
As for B8, in data set [1], the Km came to 27.7 ± 1.2 µM and the Vmax came to 0.313 ± 0.007 µmol/min/mg.

B9: R479H: recombinant Ndi1 mutant R479H (protein, UniProt P32340 27-513, looked up, variant R479H)
Rotenone-insensitive …: T1 sequence (P32340 27-513) with R453H
For B9, in data set [1], the Km was 23.5 ± 1.4 µM and the Vmax came to 1.06 ± 0.035 µmol/min/mg. Moreover, the “Vmax, % of the wild-type activity” value in data set [1] (relative to wild-type Ndi1) is on record as 0.1%.

B10: Y482F: recombinant Ndi1 mutant Y482F (protein, UniProt P32340 27-513, looked up, variant Y482F)
Rotenone-insensitive …: T1 sequence (P32340 27-513) with Y456F
Consider B10, for which, in data set [1], the Km was determined as 23.3 ± 2 µM and the Vmax stood at 1090 ± 45 µmol/min/mg.

B11: R479A: recombinant Ndi1 mutant R479A (protein, UniProt P32340 27-513, looked up, variant R479A)
Rotenone-insensitive …: T1 sequence (P32340 27-513) with R453A
Consider B11, for which, in data set [1], the Km came out at 11.5 ± 0.58 µM and the Vmax came to 316 ± 6.1 µmol/min/mg. The “Vmax, % of the wild-type activity” value in data set [1] (relative to wild-type Ndi1) worked out at 30%.

B12: S484F: recombinant Ndi1 mutant S484F (protein, UniProt P32340 27-513, looked up, variant S484F)
Rotenone-insensitive …: T1 sequence (P32340 27-513) with S458F
B12: in data set [1], the Km came out at 24.5 ± 3.9 µM and the Vmax stood at 1160 ± 120 µmol/min/mg.

B13: I459N: recombinant Ndi1 mutant I459N (protein, UniProt P32340 27-513, looked up, variant I459N)
Rotenone-insensitive …: T1 sequence (P32340 27-513) with I433N
As to B13, in data set [1], the Km came to 30.3 ± 2 µM and the Vmax came out at 11.1 ± 0.096 µmol/min/mg.

B14: S484I: recombinant Ndi1 mutant S484I (protein, UniProt P32340 27-513, looked up, variant S484I)
Rotenone-insensitive …: T1 sequence (P32340 27-513) with S458I
Regarding B14, in data set [1], the Km came to 25 ± 1.7 µM and the Vmax turned out to be 1010 ± 33 µmol/min/mg.

B15: M485A: recombinant Ndi1 mutant M485A (protein, UniProt P32340 27-513, looked up, variant M485A)
Rotenone-insensitive …: T1 sequence (P32340 27-513) with M459A
As for B15, in data set [1], the Km amounted to 18.6 ± 1.1 µM and the Vmax was 292 ± 9.9 µmol/min/mg. For the same molecule, the “Vmax, % of the wild-type activity” value in data set [1] (relative to wild-type Ndi1) is reported as 28%.

For the origin of these results see paper PMC5799168 (Scientific Reports, 2018).
